Laboratory results taken from article PMC8887125, “RBBP6 activates the pre-mRNA 3′ end processing machinery in humans” (Genes & Development, 2022).

Experiments:
CPSF73 = biological target: T1, CPSF73 (Homo sapiens, UniProt Q9UKF6); assay: in vitro SV40 pre-mRNA cleavage assay with purified proteins, dose response by denaturing gel; format: biochemical
T1 construct: gene CPSF3; CPSF73 within the purified recombinant seven-subunit CPSF complex (mPSF + mCF); with CPSF subunits (CPSF100, symplekin, CPSF160, WDR33, CPSF30, hFip1) with CStF, CFIIm and RBBP6 (1-335)

[1] = biological target: T2, cleavage and polyadenylation specificity factor (CPSF), recombinant seven-subunit complex with hFip1 isoform 4 (human, UniProt Q10570 1-1443; Q9C0J8 1-576; O95639-2 1-244; Q6UN15 1-28; Q6UN15 44-393; Q9UKF6 …, F393K); assay: SEC; 2.5 µM CPSF, mCF or mCF_(symplekin ΔNTD) incubated with 10 µM SSU72 for 30 min on ice; Superose 6 Increase 3.2/300; HEPES-NaOH pH 8.0, 150 mM NaCl, 0.5 mM TCEP; peak fractions on SDS-PAGE; conditions: both partners purified
T2 construct: CPSF160, human; synthetic codon-optimised gene for the full-length protein; WDR33, human, residues 1-576 (unstructured region removed); CPSF30, human, isoform 2 (short isoform); synthetic gene for the isoform; hFip1, human; isoform 4 (UniProt Q6UN15-4) was built from residues 1-28 and 44-393 of the full-length protein; this piece is 1-28; second piece of isoform 4 (UniProt Q6UN15-4): residues …

[2] = biological target: T3, mammalian cleavage factor (mCF), wild type: CPSF73, CPSF100 and symplekin (human, UniProt Q9UKF6 1-684; Q9P2I0 1-782; Q92797 1-1274); assay: as above; conditions: both partners purified
T3 construct: CPSF73, human; synthetic gene for the full-length protein; CPSF100, human; symplekin, human; full coding region; also called mCFWT; source: Sf9 insect cells (baculovirus, pBig1), purified (Strep-Tactin, Resource Q, Superose 6); not shown: TEV site-StrepII (SII), C-terminal, kept; copies: + +
T3 sequence (Q9UKF6 whole entry, chain 1 of 3): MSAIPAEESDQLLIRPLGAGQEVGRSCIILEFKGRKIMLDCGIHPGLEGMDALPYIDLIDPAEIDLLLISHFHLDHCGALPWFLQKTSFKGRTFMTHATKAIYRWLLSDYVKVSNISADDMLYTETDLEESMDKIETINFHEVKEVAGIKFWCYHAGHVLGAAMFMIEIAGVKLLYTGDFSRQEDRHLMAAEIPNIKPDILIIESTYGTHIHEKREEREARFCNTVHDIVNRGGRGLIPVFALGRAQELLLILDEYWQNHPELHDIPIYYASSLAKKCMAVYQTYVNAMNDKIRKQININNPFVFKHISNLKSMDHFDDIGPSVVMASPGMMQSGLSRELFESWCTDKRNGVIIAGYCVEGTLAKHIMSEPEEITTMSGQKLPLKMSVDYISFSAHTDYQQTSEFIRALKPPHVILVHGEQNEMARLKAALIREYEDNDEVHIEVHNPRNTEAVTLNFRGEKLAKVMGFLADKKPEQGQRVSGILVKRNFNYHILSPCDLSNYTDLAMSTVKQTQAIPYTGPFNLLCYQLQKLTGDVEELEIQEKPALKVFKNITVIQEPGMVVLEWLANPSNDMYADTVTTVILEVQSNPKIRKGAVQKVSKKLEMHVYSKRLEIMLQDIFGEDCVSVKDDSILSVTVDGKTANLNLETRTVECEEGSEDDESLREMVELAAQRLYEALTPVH
T3 sequence (Q9P2I0 whole entry, chain 2 of 3): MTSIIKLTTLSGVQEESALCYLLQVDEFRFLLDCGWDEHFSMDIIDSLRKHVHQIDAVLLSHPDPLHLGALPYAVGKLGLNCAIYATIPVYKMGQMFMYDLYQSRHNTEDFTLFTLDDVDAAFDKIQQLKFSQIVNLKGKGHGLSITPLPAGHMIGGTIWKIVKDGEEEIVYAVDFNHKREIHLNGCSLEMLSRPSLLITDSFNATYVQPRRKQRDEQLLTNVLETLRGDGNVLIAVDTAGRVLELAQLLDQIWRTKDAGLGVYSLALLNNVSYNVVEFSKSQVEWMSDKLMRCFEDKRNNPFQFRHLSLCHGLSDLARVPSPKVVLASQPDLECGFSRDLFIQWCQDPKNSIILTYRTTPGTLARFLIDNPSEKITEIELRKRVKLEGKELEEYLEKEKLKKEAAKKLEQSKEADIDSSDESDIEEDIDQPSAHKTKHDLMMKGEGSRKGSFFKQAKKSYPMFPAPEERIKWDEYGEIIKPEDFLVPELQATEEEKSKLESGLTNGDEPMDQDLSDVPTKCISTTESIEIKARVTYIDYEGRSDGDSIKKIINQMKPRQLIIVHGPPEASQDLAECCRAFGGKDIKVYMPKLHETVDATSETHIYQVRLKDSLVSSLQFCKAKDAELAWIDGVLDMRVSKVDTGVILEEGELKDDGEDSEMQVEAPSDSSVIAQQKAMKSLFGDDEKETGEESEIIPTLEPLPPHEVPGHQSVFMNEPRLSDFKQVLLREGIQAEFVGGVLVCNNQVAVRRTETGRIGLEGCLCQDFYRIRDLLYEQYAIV
T3 sequence (Q92797 whole entry, chain 3 of 3): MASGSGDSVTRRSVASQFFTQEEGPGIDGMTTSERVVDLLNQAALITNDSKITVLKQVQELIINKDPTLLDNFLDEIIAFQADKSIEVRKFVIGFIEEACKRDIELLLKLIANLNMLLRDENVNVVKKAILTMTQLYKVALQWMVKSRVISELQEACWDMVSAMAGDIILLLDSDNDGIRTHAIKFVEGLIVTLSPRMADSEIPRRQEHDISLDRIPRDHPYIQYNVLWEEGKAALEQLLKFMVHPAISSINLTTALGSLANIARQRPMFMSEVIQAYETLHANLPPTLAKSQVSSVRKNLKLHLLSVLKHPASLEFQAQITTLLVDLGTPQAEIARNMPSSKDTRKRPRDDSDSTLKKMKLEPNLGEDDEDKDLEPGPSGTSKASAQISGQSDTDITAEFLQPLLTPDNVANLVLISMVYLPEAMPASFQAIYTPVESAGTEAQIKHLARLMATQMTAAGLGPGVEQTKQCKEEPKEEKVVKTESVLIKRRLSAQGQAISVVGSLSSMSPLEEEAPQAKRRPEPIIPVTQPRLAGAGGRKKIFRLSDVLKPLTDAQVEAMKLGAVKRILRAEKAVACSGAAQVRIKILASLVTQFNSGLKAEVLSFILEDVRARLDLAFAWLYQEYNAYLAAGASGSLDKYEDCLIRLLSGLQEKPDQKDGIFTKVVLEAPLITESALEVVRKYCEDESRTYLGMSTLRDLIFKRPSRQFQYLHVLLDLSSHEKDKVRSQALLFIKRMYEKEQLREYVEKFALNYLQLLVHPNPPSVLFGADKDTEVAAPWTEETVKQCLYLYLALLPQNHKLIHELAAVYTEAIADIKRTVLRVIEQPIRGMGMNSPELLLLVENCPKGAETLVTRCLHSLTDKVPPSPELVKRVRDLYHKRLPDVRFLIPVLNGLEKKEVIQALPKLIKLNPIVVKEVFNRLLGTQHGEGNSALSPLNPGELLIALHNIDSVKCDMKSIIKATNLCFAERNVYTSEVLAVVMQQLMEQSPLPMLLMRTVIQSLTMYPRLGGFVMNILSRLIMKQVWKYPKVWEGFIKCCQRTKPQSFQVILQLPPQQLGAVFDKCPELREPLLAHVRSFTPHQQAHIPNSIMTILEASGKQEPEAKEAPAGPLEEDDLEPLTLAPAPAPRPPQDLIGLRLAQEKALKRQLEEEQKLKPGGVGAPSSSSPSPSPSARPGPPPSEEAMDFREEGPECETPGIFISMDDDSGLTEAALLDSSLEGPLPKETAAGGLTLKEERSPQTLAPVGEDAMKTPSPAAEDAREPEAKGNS

RBBP6 1-335 = biological target: T4, RBBP6 1-335 (Homo sapiens, UniProt Q7Z6E9 1-335); assay: EMSA; no CPSF; 100 nM RNA; EMSA: 100 nM RNA, 15 min on ice, 10% native PAGE at 4 C (binding buffer not stated); SEC: HEPES-NaOH pH 8.0, 50 mM NaCl, 0.5 mM TCEP; pull-down: 20 mM HEPES-NaOH pH 8.0, 50 mM NaCl, 0.5 mM TCEP, 2 mM Mg(OAc)2, 4 C; conditions: protein: recombinant; tags: C-terminal TEV-StrepII; label: 5'-FAM
T4 sequence: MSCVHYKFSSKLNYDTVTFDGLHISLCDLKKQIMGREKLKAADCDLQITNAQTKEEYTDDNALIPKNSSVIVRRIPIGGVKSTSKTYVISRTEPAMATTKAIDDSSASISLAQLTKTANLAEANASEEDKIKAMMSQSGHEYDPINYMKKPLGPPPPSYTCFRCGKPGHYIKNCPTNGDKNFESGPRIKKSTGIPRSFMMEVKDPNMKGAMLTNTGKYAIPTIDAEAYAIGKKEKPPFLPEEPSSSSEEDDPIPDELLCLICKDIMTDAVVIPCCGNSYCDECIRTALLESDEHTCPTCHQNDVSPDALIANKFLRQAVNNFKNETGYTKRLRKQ

RBBP6 Y228G = biological target: T5, RBBP6 Y228G (Homo sapiens, UniProt Q7Z6E9 1-335, Y228G); assay: EMSA; no CPSF; binding unaffected vs WT; EMSA: 100 nM RNA, 15 min on ice, 10% native PAGE at 4 C (binding buffer not stated); SEC: HEPES-NaOH pH 8.0, 50 mM NaCl, 0.5 mM TCEP; pull-down: 20 mM HEPES-NaOH pH 8.0, 50 mM NaCl, 0.5 mM TCEP, 2 mM Mg(OAc)2, 4 C; conditions: protein: recombinant; tags: C-terminal TEV-StrepII; label: 5'-FAM
T5 sequence: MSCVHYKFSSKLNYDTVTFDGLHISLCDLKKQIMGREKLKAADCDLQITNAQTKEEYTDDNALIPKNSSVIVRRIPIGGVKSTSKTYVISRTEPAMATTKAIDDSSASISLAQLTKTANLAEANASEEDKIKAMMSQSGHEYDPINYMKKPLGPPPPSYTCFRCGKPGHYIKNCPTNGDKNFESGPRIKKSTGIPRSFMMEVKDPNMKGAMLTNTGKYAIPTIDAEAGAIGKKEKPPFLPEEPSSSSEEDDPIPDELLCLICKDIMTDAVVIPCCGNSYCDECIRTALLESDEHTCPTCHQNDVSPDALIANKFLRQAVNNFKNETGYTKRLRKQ

RBBP6 P195G = biological target: T6, RBBP6 P195G (Homo sapiens, UniProt Q7Z6E9 1-335, P195G); assay: as above; conditions: protein: recombinant; tags: C-terminal TEV-StrepII; label: 5'-FAM
T6 sequence: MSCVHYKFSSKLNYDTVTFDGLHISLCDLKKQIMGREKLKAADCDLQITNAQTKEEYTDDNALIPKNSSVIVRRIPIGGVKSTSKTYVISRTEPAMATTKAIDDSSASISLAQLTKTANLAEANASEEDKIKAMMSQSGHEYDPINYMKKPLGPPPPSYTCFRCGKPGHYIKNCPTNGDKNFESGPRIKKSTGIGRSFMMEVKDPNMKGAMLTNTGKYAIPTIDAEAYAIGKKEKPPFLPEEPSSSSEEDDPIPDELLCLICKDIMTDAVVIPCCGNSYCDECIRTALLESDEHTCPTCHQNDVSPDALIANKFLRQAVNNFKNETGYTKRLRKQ

RBBP6 D43K R74E = biological target: T7, RBBP6 D43K R74E (Homo sapiens, UniProt Q7Z6E9 1-335, D43K;R74E); assay: as above; conditions: protein: recombinant; tags: C-terminal TEV-StrepII; label: 5'-FAM
T7 sequence: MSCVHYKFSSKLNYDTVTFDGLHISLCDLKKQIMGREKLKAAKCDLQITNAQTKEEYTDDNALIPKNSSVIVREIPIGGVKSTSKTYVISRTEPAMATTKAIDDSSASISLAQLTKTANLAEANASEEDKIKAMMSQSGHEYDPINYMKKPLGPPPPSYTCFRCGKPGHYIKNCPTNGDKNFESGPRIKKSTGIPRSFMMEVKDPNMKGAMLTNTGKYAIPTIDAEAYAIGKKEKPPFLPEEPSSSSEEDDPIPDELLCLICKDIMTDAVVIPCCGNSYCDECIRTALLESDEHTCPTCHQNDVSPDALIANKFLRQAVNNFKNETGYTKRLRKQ

[3] = biological target: CPSF (seven subunits);RBBP6 1-335 (Homo sapiens;Homo sapiens, UniProt Q10570;Q9C0J8;O95639;Q6UN15-4;Q9UKF6;Q9P2I0;Q92797;Q7Z6E9 …, internal_change|); assay: size exclusion chromatography; 2.5 uM CPSF, 7.5 uM RBBP6, 5 uM RNA; RBBP6 substoichiometric; EMSA: 100 nM RNA, 15 min on ice, 10% native PAGE at 4 C (binding buffer not stated); SEC: HEPES-NaOH pH 8.0, 50 mM NaCl, 0.5 mM TCEP; pull-down: 20 mM HEPES-NaOH pH 8.0, 50 mM NaCl, 0.5 mM TCEP, 2 mM Mg(OAc)2, 4 C; conditions: protein: recombinant;recombinant; tags: StrepII on WDR33 and symplekin;C-terminal TEV-StrepII; copies: 1;1;1;1;1;1;1;1; label: 5'-FAM

CN1CCN(CCOc2c(Cl)cc(C(=O)N[C@@H](Cc3ccccc3)C(=O)O)c(O)c2Cl)CC1 [JTE-607 acid] was tested, and the IC50 (CPSF73) was ~0.35 µM.

B1: SSU72 (enzyme, human, UniProt Q9NP77 1-194, looked up)
chain: MPSSPLRVAVVCSSNQNRSMEAHNILSKRGFSVRSFGTGTHVKLPGPAPDKPNVYDFKTTYDQMYNDLLRKDKELYTQNGILHMLDRNKRIKPRPERFQNCKDLFDLILTCEERVYDQVVEDLNSREQETCQPVHVVNVDIQDNHEEATLGAFLICELCQCIQHTEDMENEIDELLQEFEEKSGRTFLHTVCFY
notes: SSU72, human; the coding region amplified from the synthetic full-length gene; also called human SSU72; phosphatase SSU72; source: E. coli BL21(DE3) Star, purified (HisTrap, 3C cleavage, Superdex 75); not shown: His6, N-terminal, cleaved
B1: binds [1]; binds [2].

B2: 5'-FAM-L3 41-nt RNA (ssRNA)
RNA: AUGAUCUAGGAGACACAAUAAAGGCAAUGUUUUUAUUUGUA
B2: binds (RBBP6 1-335); binds (RBBP6 Y228G); binds (RBBP6 P195G). B2: binds (RBBP6 D43K R74E); binds [3].
